Laboratory results reported in patent publication US11008402 (dated 2021).
Where “and” joins values, the source holds several entries; their conditions need not be identical. Equal entries are not always repeated. Where two headings read alike, the source gives them in different places.

Tests used:
HER3-Fc ECD [1] = target: HER3-Fc ECD (human); experiment: ELISA
HER3 (cell surface) [2] = target: HER3 (cell surface) (human); experiment: FACS, A375
CD3 (Jurkat cells) = CD3 (Jurkat cells) (human, UniProt P07766); experiment: FACS, Jurkat
EGFR (cell surface) = EGFR (cell surface) (human, UniProt P00533); experiment: FACS, FaDu (EGFR and HER3 positive)
EGFR ECD = EGFR ECD (human, UniProt P00533); experiment: ELISA
HER3-His ECD [3] = target: HER3-His ECD (human); experiment: ELISA
HER3-His ECD [4] = target: HER3-His ECD (human); experiment: ELISA; remark: listed apart in the source
HER3 (cell surface) [5] = target: HER3 (cell surface) (human); experiment: FACS, MCF-7 (Example 22)
HER3 (cell surface) [6] = target: HER3 (cell surface) (human); experiment: FACS, MCF-7
HER3-Fc ECD [7] = target: HER3-Fc ECD (human); experiment: ELISA; remark: listed apart in the source
HER3-His ECD [8] = target: HER3-His ECD (human); experiment: ELISA; remark: listed apart in the source
HER3 (cell surface) [9] = target: HER3 (cell surface) (human); experiment: FACS, SKBR-3 (EGFR and HER3 positive)
HER3 (cell surface) [10] = target: HER3 (cell surface) (human); experiment: FACS, MCF-7; remark: listed apart in the source

CD3 (Jurkat cells), sequence (P07766 23-207): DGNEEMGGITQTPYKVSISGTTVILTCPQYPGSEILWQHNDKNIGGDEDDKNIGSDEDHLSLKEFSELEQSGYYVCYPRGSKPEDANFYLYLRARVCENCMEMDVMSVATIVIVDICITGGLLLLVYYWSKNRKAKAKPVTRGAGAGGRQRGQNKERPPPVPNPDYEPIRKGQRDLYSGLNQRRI

B1: scFv3-43-Fc-scTRAIL, HER3 arm (antibody)
chain: QVQLQQSGPGLVKPSQTLSLTCAISGDSVSSNRAAWNWIRQSPSRGLEWLGRTYYRSKWYNDYAQSLKSRITINPDTPKNQFSLQLNSVTPEDTAVYYCARDGQLGLDALDIWGQGTMVTVSSGGGGSGGGGSGGGGSQAGLTQPPAVSVAPGQTASITCGRDNIGSRSVHWYQQKPGQAPVLVVYDDSDRPAGIPERFSGSNYENTATLTISRVEAGDEADYYCQVWGITSDHVVFGGGTKLTVLG
EC50 (HER3-Fc ECD [1]): 0.33 nM | EC50 (HER3 (cell surface) [2]): 1.19 nM

B2: scFv3-43-scDb3-43xhuU3-scFv3-43, CD3 arm (antibody)
chain: METDTLLLWVLLLWVPGSTGQVQLQQSGPGLVKPSQTLSLTCAISGDSVSSNRAAWNWIRQSPSRGLEWLGRTYYRSKWYNDYAQSLKSRITINPDTPKNQFSLQLNSVTPEDTAVYYCARDGQLGLDALDIWGQGTMVTVSSGGGGSDIQMTQSPSSLSASVGDRVTITCRASQDIRNYLNWYQQKPGKAPKLLIYYTSRLHSGVPSRFSGSGSGTDFTFTISSLQPEDIATYYCQQGNTLPWTFGQGTKLEIKRGGGGSGGGGSGGGGSQVQLVQSGAEVKKPGSSVKVSCKASGGTFSGYTMNWVRQAPGQGLEWMGLINPYKGVSTYNGKFKDRVTITADKSTSTAYMELSSLRSEDTAVYYCARSGYYGDSDWYFDVWGQGTLVTVSSGGGGSQAGLTQPPAVSVAPGQTASITCGRDNIGSRSVHWYQQKPGQAPVLVVYDDSDRPAGIPERFSGSNYENTATLTISRVEAGDEADYYCQVWGITSDHVVFGGGTKLTVLAAAGGSGGGGSGGGTQVQLQQSGPGLVKPSQTLSLTCAISGDSVSSNRAAWNWIRQSPSRGLEWLGRTYYRSKWYNDYAQSLKSRITINPDTPKNQFSLQLNSVTPEDTAVYYCARDGQLGLDALDIWGQGTMVTVSSGGGGSGGGGSGGGGSQAGLTQPPAVSVAPGQTASITCGRDNIGSRSVHWYQQKPGQAPVLVVYDDSDRPAGIPERFSGSNYENTATLTISRVEAGDEADYYCQVWGITSDHVVFGGGTKLTVLGSL
EC50 (CD3 (Jurkat cells)): 5.2 nM

B3: scDb 3-43xCD3, CD3 arm (antibody)
chain: METDTLLLWVLLLWVPGSTGQVQLQQSGPGLVKPSQTLSLTCAISGDSVSSNRAAWNWIRQSPSRGLEWLGRTYYRSKWYNDYAQSLKSRITINPDTPKNQFSLQLNSVTPEDTAVYYCARDGQLGLDALDIWGQGTMVTVSSGGGGSDIQMTQSPSSLSASVGDRVTITCRASQDIRNYLNWYQQKPGKAPKLLIYYTSRLHSGVPSRFSGSGSGTDFTFTISSLQPEDIATYYCQQGNTLPWTFGQGTKLEIKRGGGGSGGGGSGGGGSQVQLVQSGAEVKKPGSSVKVSCKASGGTFSGYTMNWVRQAPGQGLEWMGLINPYKGVSTYNGKFKDRVTITADKSTSTAYMELSSLRSEDTAVYYCARSGYYGDSDWYFDVWGQGTLVTVSSGGGGSQAGLTQPPAVSVAPGQTASITCGRDNIGSRSVHWYQQKPGQAPVLVVYDDSDRPAGIPERFSGSNYENTATLTISRVEAGDEADYYCQVWGITSDHVVFGGGTKLTVLAAAHHHHHH
EC50 (CD3 (Jurkat cells)): 2.4 nM and 3.1 nM

B4: Db3-43xhu225-Ig, EGFR arm (antibody)
chain 1: EVQLVESGGGLVQPGGSLRLSCAASGFSLTNYGVHWVRQAPGKGLEWLGVIWSGGNTDYNTPFTSRFTISRDNSKNTLYLQMNSLRAEDTAVYYCARALTYYDYEFAYWGQGTTVTVSSGGGGSQAGLTQPPAVSVAPGQTASITCGRDNIGSRSVHWYQQKPGQAPVLVVYDDSDRPAGIPERFSGSNYENTATLTISRVEAGDEADYYCQVWGITSDHVVFGGGTKLTVLASTKGPSVFPLAPSSKSTSGGTAALGCLVKDYFPEPVTVSWNSGALTSGVHTFPAVLQSSGLYSLSSVVTVPSSSLGTQTYICNVNHKPSNTKVDKKVEPKSCDKTHTCPPCPAPPVAGPSVFLFPPKPKDTLMISRTPEVTCVVVDVSHEDPEVKFNWYVDGVEVHNAKTKPREEQYNSTYRVVSVLTVLHQDWLNGKEYKCKVSNKGLPSSIEKTISKAKGQPREPQVYTLPPSRDELTKNQVSLTCLVKGFYPSDIAVEWESNGQPENNYKTTPPVLDSDGSFFLYSKLTVDKSRWQQGNVFSCSVMHEALHNHYTQKSLSLSPGK
chain 2: QVQLQQSGPGLVKPSQTLSLTCAISGDSVSSNRAAWNWIRQSPSRGLEWLGRTYYRSKWYNDYAQSLKSRITINPDTPKNQFSLQLNSVTPEDTAVYYCARDGQLGLDALDIWGQGTMVTVSSGGGGSDIQLTQSPSFLSASVGDRVTITCRASQSIGTNIHWYQQKPGKAPKLLIKYASESISGVPSRFSGSGSGTEFTLTISSLQPEDFATYYCQQNNNWPTTFGAGTKLEIKRTVAAPSVFIFPPSDEQLKSGTASVVCLLNNFYPREAKVQWKVDNALQSGNSQESVTEQDSKDSTYSLSSTLTLSKADYEKHKVYACEVTHQGLSSPVTKSFNRGEC
EC50 (EGFR (cell surface)): 0.14 nM | EC50 (EGFR ECD): 0.19 nM

B5: scDb 4D5x3-43-Fc, HER3 arm (antibody, V domains shown)
VH: QVQLQQSGPGLVKPSQTLSLTCAISGDSVSSNRAAWNWIRQSPSRGLEWLGRTYYRSKWYNDYAQSLKSRITINPDTPKNQFSLQLNSVTPEDTAVYYCARDGQLGLDALDIWGQGTMVTVSS
VL: QAGLTQPPAVSVAPGQTASITCGRDNIGSRSVHWYQQKPGQAPVLVVYDDSDRPAGIPERFSGSNYENTATLTISRVEAGDEADYYCQVWGITSDHVVFGGGTKLTVLG
EC50 (HER3-His ECD [3]): 1.9 nM

B6: scDb hu225x3-43-Fc, HER3 arm (antibody, V domains shown)
VH: B5 VH
VL: B5 VL
EC50 (HER3-His ECD [4]): 0.24 nM

B7: scDb 3-43xCD3, HER3 arm (antibody, V domains shown)
VH: B5 VH
VL: B5 VL
EC50 (HER3 (cell surface) [5]): 1.1 nM | EC50 (HER3 (cell surface) [6]): 1.1 nM | EC50 (HER3-Fc ECD [7]): 3.3 nM and 4.87 nM

B8: scDb 3-43xCD3-scFv 3-43, HER3 arms (antibody, V domains shown)
VH: B5 VH
VL: B5 VL
EC50 (HER3 (cell surface) [6]): 0.0316 nM and 0.0314 nM | EC50 (HER3-Fc ECD [7]): 0.81 nM

B9: scDb 2-35x3-43-Fc, HER3 arm (antibody, V domains shown)
VH: B5 VH
VL: B5 VL
EC50 (HER3-His ECD [3]): 0.24 nM

B10: scDb4D5x3-43-LL, HER3 arm (antibody, V domains shown)
VH: B5 VH
VL: B5 VL
EC50 (HER3-Fc ECD [7]): 0.93 nM

B11: scFv3-43-scDb3-43xhuU3-scFv3-43, HER3 arms (antibody, V domains shown)
VH: B5 VH
VL: B5 VL
EC50 (HER3 (cell surface) [6]): 0.0173 nM

B12: scDbhu225x3-43-Fc (GGGGS), HER3 arm (antibody, V domains shown)
VH: B5 VH
VL: B5 VL
EC50 (HER3-His ECD [3]): 0.2 nM

B13: Db3-43xhu225-Ig, HER3 arm (antibody, V domains shown)
VH: B5 VH
VL: B5 VL
EC50 (HER3-His ECD [8]): 0.26 nM | EC50 (HER3 (cell surface) [9]): 0.047 nM | EC50 (HER3 (cell surface) [10]): 0.054 nM
